From publication PMC5624674 come the findings set out here.

The chains are these.
B1: unnamed (parent)
chain 1: MKTLPVLPGQAASSRPSPVEIWQILLSRLLDQHYGLTLNDTPFADERVIEQHIEAGISLCDAVNFLVEKYALVRTDQPGFSACTRSQLINSIDILRARRATGLMTRDNYRTVNNITLGKYPEAK
chain 2: MFEPMELTNDAVIKVIGVGGGGGNAVEHMVRERIEGVEFFAVNTDAQALRKTAVGQTIQIGSGITKGLGAGANPEVGRNAADEDRDALRAALEGADMVFIAAGMGGGTGTGAAPVVAEVAKDLGILTVAVVTKPFNFEGKKRMAFAEQGITELSKHVDSLITIPNDKLLKVLGRGISLLDAFGAANDVLKGAVQGIAELITRPGLMNVDFADVRTVMSEMGYAMMGSGVASGEDRAEEAAEMAISSPLLEDIDLSGARGVLVNITAGFDLRLDEFETVGNTIRAFASDNATVVIGTSLDPDMNDELRVTVVATGIGMDKRPEITLVTNKQVQQPVMDRYQQHGMAPLTQEQKPVAKVVNDNAPQTAKEPDYLDIPAFLRKQAD
B2: α-FtsZ fusion protein (wild-type E. coli FtsZ) [E. coli] / α-FtsZ fusion protein (wild-type E. coli FtsZ) [E. coli] (parent)
chain 1: B1 chain 2
chain 2: B1 chain 2
B3: unnamed (parent)
chain 1: B1 chain 1
chain 2: MLKKFRGMFSNDLSIDLGTANTLIYVKGQGIVLNEPSVVAIRQDRAGSPKSVAAVGHDAKQMLGRTPGNIAAIRPMKDGVIADFFVTEKMLQHFIKQVHSNSFMRPSPRVLVCVPVGATQVERRAIRESAQGAGAREVFLIEEPMAAAIGAGLPVSEATGSMVVDIGGGTTEVAVISLNGVVYSSSVRIGGDRFDEAIINYVRRNYGSLIGEATAERIKHEIGSAYPGDEVREIEVRGRNLAEGVPRGFTLNSNEILEALQEPLTGIVSAVMVALEQCPPELASDISERGMVLTGGGALLRNLDRLLMEETGIPVVVAEDPLTCVARGGGKALEMIDMHGGDLFSEE

The first assay covers variants of B1. As to the kind of experiment: bacterial two-hybrid β-galactosidase assay. To be noted: with partner chain of the complex shown; 100 μM IPTG; parent: 2e+03; read off a plot.
With chain 2 F182S, the response came to 260 Miller Units.

Turning to chain 2 L179R, the response came to 250 Miller Units.

Still in this assay, the particulars now being: with partner chain of the complex shown; 25 μM IPTG; parent: 1.5e+03; read off a plot.
Take chain 1 F65S: the response was found to be 75 Miller Units.

Take chain 1 R15C: the response worked out at 1300 Miller Units.

The variants in another assay derive from B2. As to the kind of experiment: bacterial two-hybrid β-galactosidase assay. To be noted: with α-FtsZ fusion protein (wild-type E. coli FtsZ) [E. coli]; 100 μM IPTG; parent: 320; read off a plot.
Take chain 1 F182S: the response worked out at 260 Miller Units.

Turning to chain 1 L179R, the response is 250 Miller Units.

The variants in another assay derive from B3. Briefly: bacterial two-hybrid β-galactosidase assay. Particulars: with partner chain of the complex shown; 100 μM IPTG; parent: 310; read off a plot.
For the variant chain 1 R15C, the response amounted to 130 Miller Units.

As for chain 1 F65S, the response worked out at 330 Miller Units.
